Laboratory results taken from patent US20220324974A1 (SORRENTO THERAPEUTICS, published 2022).

Key:
[1] = molecular target: T1, CD38 expressed on human tumor cell lines (RPMI8226, MM1.R and other CD38(+) lines) (human, UniProt P28907 1-300); assay: cell-based or functional assay
[2] = molecular target: T1, CD38 expressed on human tumor cell …; assay: cell-based or functional assay; remark: listed apart in the source
[3] = molecular target: T2, CD3 antigen on primary human T cells (human, UniProt P07766 23-207; P04234 22-171; P09693 23-182); assay: flow cytometry on CD38-minus primary human T cells
T2 construct: CD3 is a multi-chain complex; also called CD3-expressing T cells; CD3-expressing CD38-minus T cells

[4] = molecular target: T3, BCMA expressed on MM1.R myeloma cells (UniProt Q02223 1-184); assay: cell-based or functional assay
T3 sequence (looked up): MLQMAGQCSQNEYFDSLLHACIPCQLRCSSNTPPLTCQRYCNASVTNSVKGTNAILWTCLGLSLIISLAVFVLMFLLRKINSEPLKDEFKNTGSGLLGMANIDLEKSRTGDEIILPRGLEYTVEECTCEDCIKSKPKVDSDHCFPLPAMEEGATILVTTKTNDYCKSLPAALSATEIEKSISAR

[5] = molecular target: T4, BCMA target antigen (Acro Biosystems catalog # BCA-H522g) (UniProt Q02223 1-54); assay: SPR Biacore, antibody captured by anti-Fc, antigen as analyte, 1:1 model
T4 construct: range 1-54; Bought protein; also called BMCA target antigen; BCMA antigen
T4 sequence (looked up): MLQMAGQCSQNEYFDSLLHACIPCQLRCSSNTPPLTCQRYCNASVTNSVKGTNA

[6] = molecular target: T2, CD3 antigen on primary human T cells; assay: flow cytometry on freshly isolated primary human T cells, anti-human Fc-APC secondary, GeoMean RL1-H of singlets
[7] = molecular target: T2, CD3 antigen on primary human T cells; assay: as above; remark: listed apart in the source
[8] = molecular target: T2, CD3 antigen on primary human T cells; assay: flow cytometry on CD38-minus primary human T cells, anti-human Fc-APC secondary, GeoMean RL1-H of singlets

B1: Kv5.1 CD38/CD3 three-chain in-tandem bispecific antibody (bispecific antibody)
chain 1: QVQLVESGGGLVKPGGSLRLSCAASGFTFSDDYMSWIRQAPGKGLEWVASVSNGRPTTYYADSVRGRFTISRDNAKNSLYLQMNSLRAEDTAVYYCAREGWSGEFTDWGQGTLVTVSSASTKGPSVFPLAPSSKSTSGGTAALGCLVKDYFPEPVTVSWNSGALTSGVHTFPAVLQSSGLYSLSSVVTVPSSSLGTQTYICNVNHKPSNTKVDKRVEPKSCGGSGSGSGGSSGGGSGGGGSQVQLVQSGAEVKKPGASVKVSCKASGYTFISYTMHWVRQAPGQGLEWMGYINPRSGYTHYNQKLKDKATLTADKSASTAYMELSSLRSEDTAVYYCARSAYYDYDGFAYWGQGTLVTVSSASTKGPSVFPLAPSSKSTSGGTAALGCLVKDYFPEPVTVSWNSGALTSGVHTFPAVLQSSGLYSLSSVVTVPSSSLGTQTYICNVNHKPSNTKVDKRVEPKSSDKTHTCPPCPAPEAAGGPSVFLFPPKPKDTLMISRTPEVTCVVVDVSHEDPEVKFNWYVDGVEVHNAKTKPREEQYNSTYRVVSVLTVLHQDWLNGKEYKCKVSNKALPAPIEKTISKAKGQPREPQVYTLPPSREEMTKNQVSLSCAVKGFYPSDIAVEWESNGQPENNYKTTPPVLDSDGSFFLVSKLTVDKSRWQQGNVFSCSVMHEALHNHYTQKSLSLSPGK
chain 2: not shown
chain 3: DIQMTQSPSSLSASVGDRVTITCSASSSVSYMNWYQQKPGKAPKRLIYDTSKLASGVPSRFSGSGSGTDFTLTISSLQPEDFATYYCQQWSSNPPTFGGGTKVEIKRTVAAPSVFIFPPSDEQLKSGTASVVCLLNNFYPREAKVQWKVDNALQSGNSQESVTEQDSKDSTYSLSSTLTLSKADYEKHKVYACEVTHQGLSSPVTKSFNRGESGGSGGDKTHTCPPCPAPEAAGGPSVFLFPPKPKDTLMISRTPEVTCVVVDVSHEDPEVKFNWYVDGVEVHNAKTKPREEQYNSTYRVVSVLTVLHQDWLNGKEYKCKVSNKALPAPIEKTISKAKGQPREPQVYTLPPSREEMTKNQVSLWCLVKGFYPSDIAVEWESNGQPENNYKTTPPVLDSDGSFFLYSKLTVDKSRWQQGNVFSCSVMHEALHNHYTQKSLSLSPGK
For B1, the “IC50 pM, TAA-dependent cytotoxicity towards RPMI8226 cells” value [1] was 4.2 pM and the “IC50 pM, TAA-dependent cytotoxicity (MM1.R target cells by the text)” value [2] was 3 pM.

B2: Kv6.1 (7GS) CD38/CD3 two-chain in-tandem bispecific antibody with non-cleavable GS second linker (bispecific antibody)
heavy: QVQLVESGGGLVKPGGSLRLSCAASGFTFSDDYMSWIRQAPGKGLEWVASVSNGRPTTYYADSVRGRFTISRDNAKNSLYLQMNSLRAEDTAVYYCAREGWSGEFTDWGQGTLVTVSSASTKGPSVFPLAPSSKSTSGGTAALGCLVKDYFPEPVTVSWNSGALTSGVHTFPAVLQSSGLYSLSSVVTVPSSSLGTQTYICNVNHKPSNTKVDKRVEPKSCGGSGSGSGGSSGGGSGGGGSQVQLVQSGAEVKKPGASVKVSCKASGYTFISYTMHWVRQAPGQGLEWMGYINPRSGYTHYNQKLKDKATLTADKSASTAYMELSSLRSEDTAVYYCARSAYYDYDGFAYWGQGTLVTVSSASTKGPSVFPLAPSSKSTSGGTAALGCLVKDYFPEPVTVSWNSGALTSGVHTFPAVLQSSGLYSLSSVVTVPSSSLGTQTYICNVNHKPSNTKVDKRVEPKSSDKTHTCPPCPAPEAAGGPSVFLFPPKPKDTLMISRTPEVTCVVVDVSHEDPEVKFNWYVDGVEVHNAKTKPREEQYNSTYRVVSVLTVLHQDWLNGKEYKCKVSNKALPAPIEKTISKAKGQPREPQVYTLPPSREEMTKNQVSLSCAVKGFYPSDIAVEWESNGQPENNYKTTPPVLDSDGSFFLVSKLTVDKSRWQQGNVFSCSVMHEALHNHYTQKSLSLSPGK
light: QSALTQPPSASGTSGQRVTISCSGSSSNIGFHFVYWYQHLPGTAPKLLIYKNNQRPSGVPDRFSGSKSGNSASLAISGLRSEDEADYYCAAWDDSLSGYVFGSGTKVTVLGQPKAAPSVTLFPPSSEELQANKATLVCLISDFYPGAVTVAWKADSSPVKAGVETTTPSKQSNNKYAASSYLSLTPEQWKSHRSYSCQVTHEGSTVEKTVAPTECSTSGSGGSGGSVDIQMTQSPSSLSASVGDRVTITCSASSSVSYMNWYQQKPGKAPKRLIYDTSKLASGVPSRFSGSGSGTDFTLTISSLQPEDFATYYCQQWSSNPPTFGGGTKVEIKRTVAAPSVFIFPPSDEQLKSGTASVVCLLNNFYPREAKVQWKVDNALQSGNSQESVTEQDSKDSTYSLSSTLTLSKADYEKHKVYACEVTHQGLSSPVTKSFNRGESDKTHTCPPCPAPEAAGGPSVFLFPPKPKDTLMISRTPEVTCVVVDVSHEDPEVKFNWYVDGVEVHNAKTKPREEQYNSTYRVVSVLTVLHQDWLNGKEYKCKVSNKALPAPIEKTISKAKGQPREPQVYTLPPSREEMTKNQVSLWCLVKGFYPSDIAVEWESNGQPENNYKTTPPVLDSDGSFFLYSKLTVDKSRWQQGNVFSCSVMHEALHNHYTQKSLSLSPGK
notes: also called control non-cleavable bispecific antibody having an in-tandem structure (Kv6.1)
In the case of B2, the “fold reduction of binding to CD3” value [3] is reported as over 100 fold.

B3: Kv6.2 (7GS) CD38/CD3 two-chain non-tandem bispecific antibody with non-cleavable GS second linker (bispecific antibody)
heavy: QVQLVESGGGLVKPGGSLRLSCAASGFTFSDDYMSWIRQAPGKGLEWVASVSNGRPTTYYADSVRGRFTISRDNAKNSLYLQMNSLRAEDTAVYYCAREGWSGEFTDWGQGTLVTVSSASTKGPSVFPLAPSSKSTSGGTAALGCLVKDYFPEPVTVSWNSGALTSGVHTFPAVLQSSGLYSLSSVVTVPSSSLGTQTYICNVNHKPSNTKVDKRVEPKSSDKTHTCPPCPAPEAAGGPSVFLFPPKPKDTLMISRTPEVTCVVVDVSHEDPEVKFNWYVDGVEVHNAKTKPREEQYNSTYRVVSVLTVLHQDWLNGKEYKCKVSNKALPAPIEKTISKAKGQPREPQVYTLPPSREEMTKNQVSLSCAVKGFYPSDIAVEWESNGQPENNYKTTPPVLDSDGSFFLVSKLTVDKSRWQQGNVFSCSVMHEALHNHYTQKSLSLSPGKGSGGSSGGGSGGGGSQVQLVQSGAEVKKPGASVKVSCKASGYTFISYTMHWVRQAPGQGLEWMGYINPRSGYTHYNQKLKDKATLTADKSASTAYMELSSLRSEDTAVYYCARSAYYDYDGFAYWGQGTLVTVSSASTKGPSVFPLAPSSKSTSGGTAALGCLVKDYFPEPVTVSWNSGALTSGVHTFPAVLQSSGLYSLSSVVTVPSSSLGTQTYICNVNHKPSNTKVDKRVEPKSC
light: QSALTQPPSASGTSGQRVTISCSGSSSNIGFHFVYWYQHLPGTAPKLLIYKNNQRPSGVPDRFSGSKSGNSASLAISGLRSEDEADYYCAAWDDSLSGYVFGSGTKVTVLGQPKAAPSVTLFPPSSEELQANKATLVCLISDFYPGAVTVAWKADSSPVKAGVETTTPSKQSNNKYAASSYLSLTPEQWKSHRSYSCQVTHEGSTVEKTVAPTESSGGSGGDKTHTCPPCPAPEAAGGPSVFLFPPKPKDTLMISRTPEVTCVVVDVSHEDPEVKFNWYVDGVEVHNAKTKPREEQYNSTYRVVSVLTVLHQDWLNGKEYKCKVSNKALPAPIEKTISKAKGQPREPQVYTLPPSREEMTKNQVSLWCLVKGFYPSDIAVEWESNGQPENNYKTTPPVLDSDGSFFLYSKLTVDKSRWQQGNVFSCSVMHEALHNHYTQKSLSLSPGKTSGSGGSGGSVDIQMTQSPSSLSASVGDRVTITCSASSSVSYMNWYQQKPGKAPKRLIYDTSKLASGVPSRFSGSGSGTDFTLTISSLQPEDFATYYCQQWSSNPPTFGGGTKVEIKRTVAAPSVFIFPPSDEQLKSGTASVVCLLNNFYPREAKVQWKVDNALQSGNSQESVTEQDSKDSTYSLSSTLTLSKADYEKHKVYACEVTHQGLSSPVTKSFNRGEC
notes: also called control non-cleavable bispecific antibody having a non-tandem structure (Kv6.2)
In the case of B3, the “fold reduction of binding to CD3” value [3] is reported as over 1000 fold.

B4: Kv4.33 BCMA/CD3 three-chain non-tandem bispecific antibody (bispecific antibody)
chain 1: EVQLVESGGGLVKPGGSLRLSCAASGFTSSTAWMSWVRQAPGKGLEWVGRIKSKSDGGTTDYAAPVKGRFTISRDDSKNTLFLQMNSLKTEDTAVYYCAKGGGTYGYWGQGTTVTVSSASTKGPSVFPLAPSSKSTSGGTAALGCLVKDYFPEPVTVSWNSGALTSGVHTFPAVLQSSGLYSLSSVVTVPSSSLGTQTYICNVNHKPSNTKVDKRVEPKSSDKTHTCPPCPAPEAAGGPSVFLFPPKPKDTLMISRTPEVTCVVVDVSHEDPEVKFNWYVDGVEVHNAKTKPREEQYNSTYRVVSVLTVLHQDWLNGKEYKCKVSNKALPAPIEKTISKAKGQPREPQVYTLPPSREEMTKNQVSLSCAVKGFYPSDIAVEWESNGQPENNYKTTPPVLDSDGSFFLVSKLTVDKSRWQQGNVFSCSVMHEALHNHYTQKSLSLSPGKGSGGSSGGGSGGGGSQVQLVQSGAEVKKPGASVKVSCKASGYTFISYTMHWVRQAPGQGLEWMGYINPRSGYTHYNQKLKDKATLTADKSASTAYMELSSLRSEDTAVYYCARSAYYDYDGFAYWGQGTLVTVSSASTKGPSVFPLAPSSKSTSGGTAALGCLVKDYFPEPVTVSWNSGALTSGVHTFPAVLQSSGLYSLSSVVTVPSSSLGTQTYICNVNHKPSNTKVDKRVEPKSC
chain 2: SYVLTQPASVSGSPGQSVTISCTGTSSAHGGHYYVSWYQQHPGKAPKLMIYDVSNRPSGVSNRFSGSKSGNTASLTISGLQAEDEADYYCGSYTSSGSYVFGTGTKLTVLGQPKAAPSVTLFPPSSEELQANKATLVCLISDFYPGAVTVAWKADSSPVKAGVETTTPSKQSNNKYAASSYLSLTPEQWKSHRSYSCQVTHEGSTVEKTVAPTESSGGSGGDKTHTCPPCPAPEAAGGPSVFLFPPKPKDTLMISRTPEVTCVVVDVSHEDPEVKFNWYVDGVEVHNAKTKPREEQYNSTYRVVSVLTVLHQDWLNGKEYKCKVSNKALPAPIEKTISKAKGQPREPQVYTLPPSREEMTKNQVSLWCLVKGFYPSDIAVEWESNGQPENNYKTTPPVLDSDGSFFLYSKLTVDKSRWQQGNVFSCSVMHEALHNHYTQKSLSLSPGK
chain 3: DIQMTQSPSSLSASVGDRVTITCSASSSVSYMNWYQQKPGKAPKRLIYDTSKLASGVPSRFSGSGSGTDFTLTISSLQPEDFATYYCQQWSSNPPTFGGGTKVEIKRTVAAPSVFIFPPSDEQLKSGTASVVCLLNNFYPREAKVQWKVDNALQSGNSQESVTEQDSKDSTYSLSSTLTLSKADYEKHKVYACEVTHQGLSSPVTKSFNRGEC
notes: also called Kv4.33 (3XGS) BCMA/CD3
For B4, the “IC50 pM, TAA-dependent cytotoxicity (MM1.R target cells by the text)” value [4] was 134 pM, the Kd [5] was 47.7 nM and the koff [5] was 0.0364 s⁻¹. The kon [5] was 762000 M⁻¹ s⁻¹, the “EC50 (read off the curve)” value [6] was about 2 µg/mL and the “EC50 (read off the curve)” value [7] was about 2 µg/mL.

B5: Kv4.33 (4XGS) CD38/CD3 three-chain non-tandem bispecific antibody (bispecific antibody)
heavy: QVQLVESGGGLVKPGGSLRLSCAASGFTFSDDYMSWIRQAPGKGLEWVASVSNGRPTTYYADSVRGRFTISRDNAKNSLYLQMNSLRAEDTAVYYCAREGWSGEFTDWGQGTLVTVSSASTKGPSVFPLAPSSKSTSGGTAALGCLVKDYFPEPVTVSWNSGALTSGVHTFPAVLQSSGLYSLSSVVTVPSSSLGTQTYICNVNHKPSNTKVDKRVEPKSSDKTHTCPPCPAPEAAGGPSVFLFPPKPKDTLMISRTPEVTCVVVDVSHEDPEVKFNWYVDGVEVHNAKTKPREEQYNSTYRVVSVLTVLHQDWLNGKEYKCKVSNKALPAPIEKTISKAKGQPREPQVYTLPPSREEMTKNQVSLSCAVKGFYPSDIAVEWESNGQPENNYKTTPPVLDSDGSFFLVSKLTVDKSRWQQGNVFSCSVMHEALHNHYTQKSLSLSPGKGGSGSGSGGSSGGGSGGGGSQVQLVQSGAEVKKPGASVKVSCKASGYTFISYTMHWVRQAPGQGLEWMGYINPRSGYTHYNQKLKDKATLTADKSASTAYMELSSLRSEDTAVYYCARSAYYDYDGFAYWGQGTLVTVSSASTKGPSVFPLAPSSKSTSGGTAALGCLVKDYFPEPVTVSWNSGALTSGVHTFPAVLQSSGLYSLSSVVTVPSSSLGTQTYICNVNHKPSNTKVDKRVEPKSC
light 1: not shown
light 2: DIQMTQSPSSLSASVGDRVTITCSASSSVSYMNWYQQKPGKAPKRLIYDTSKLASGVPSRFSGSGSGTDFTLTISSLQPEDFATYYCQQWSSNPPTFGGGTKVEIKRTVAAPSVFIFPPSDEQLKSGTASVVCLLNNFYPREAKVQWKVDNALQSGNSQESVTEQDSKDSTYSLSSTLTLSKADYEKHKVYACEVTHQGLSSPVTKSFNRGEC
With B5 the “EC50 (read off the curve)” value [8] was about 2 µg/mL.
